The source of these data is article PMC6254359, “A helical LC3-interacting region mediates the interaction between the retroviral restriction factor Trim5α and mammalian autophagy-related ATG8 proteins” (The Journal of Biological Chemistry, 2018).

In one series the target is T1, GABARAPL1 (UniProt Q9H0R8 1-117).
T1 construct: also called mATG8 isoform GABARAPL1
The series is described as follows: AUC; sedimentation velocity, 20 μM RhT5 88–296 EK/RD with 0–320 μM LC3B or GABARAPL1; S value of the fast peak against concentration, one-site binding model; 20 °C; 10 mM Tris/HCl pH 8, 150 mM NaCl, 0.1 mM TCEP. The conditions noted are these: both partners purified.

Another series concerns the target LC3B H27A (UniProt Q9GZQ8 2-119, His27 to alanine). The series is described as follows: AUC; sedimentation velocity, c(s) analysis of equimolar mixtures, 20 μM each; 20 °C, 50,000 rpm; 10 mM Tris/HCl pH 8, 150 mM NaCl, 0.1 mM TCEP; shift of the fast-moving peak. The settings on record: both partners purified.
The target in the next series is LC3B I23R (UniProt Q9GZQ8 2-119, Ile23 to arginine). The series is described as above. The conditions noted are these: both partners purified.
Series [1] concerns the molecule itself. The series is described as follows: AUC; sedimentation velocity, c(s) analysis of each protein alone at 20 μM; 20 °C; 10 mM Tris/HCl pH 8, 150 mM NaCl, 0.1 mM TCEP.
Series [2] deals with autophagy-related protein LC3 B (LC3B), construct 2–119 (UniProt Q9GZQ8 2-119). Put plainly: AUC; sedimentation velocity, c(s) analysis of equimolar mixtures, 20 μM each; 20 °C, 50,000 rpm; 10 mM Tris/HCl pH 8, 150 mM NaCl, 0.1 mM TCEP; shift of the fast-moving peak. The conditions noted are these: both partners purified.
Series [3] deals with the molecule itself. The series is described as follows: SEC-MALS + AUC; Trim5α mutants alone; SEC–MALLS on Superdex 75 Increase 10/300 in 10 mM Tris/HCl pH 7.8, 150 mM NaCl, 0.1 mM TCEP, 3 mM azide, and c(s) analysis of sedimentation velocity. In general terms: Size exclusion chromatography separates by hydrodynamic size, large species first.

Numbering of substitutions follows the chain as printed. In names and notes the source's numbering stands.

Usually Kd stands for the constant that tells how readily two partners part at equilibrium. One may read the stoichiometry N as the number of molecules, sites or subunits per partner or assembly.

B1: Trim5α from Rhesus macaque, Bbox coiled-coil regions, residues 88–296 with the E120K/R121D mutation (domain or fragment, UniProt Q0PF16 88-296, looked up)
chain: PEEGQKVDHCARHGEKLLLFCQEDSKVICWLCKDSQEHRGHHTFLMEEVAQEYHVKLQTALEMLRQKQQEAEKLEADIREEKASWKIQIDYDKTNVSADFEQLREILDWEESNELQNLEKEEEDILKSLTKSETEMVQQTQYMRELISELEHRLQGSMMDLLQGVDGIIKRIENMTLKKPKTFHKNQRRVFRAPDLKGMLDMFRELTDA
In turn, B1 had a Kd with GABARAPL1 of 78 ± 6 µM. Further, the binding result with LC3B H27A and with LC3B I23R was “binds” in each case. For the same molecule, the “stoichiometry N” value in series [1] stood at 2.

B2: RhT5 88–296 EK/RD E197A (domain or fragment, Rhesus macaque, UniProt Q0PF16 88-296, looked up)
chain: B1 chain with E110A
With B2, in series [2], the binding result was “binds”. Further, the “stoichiometry N” value in series [3] turned out to be 2.

B3: RhT5 88–296 EK/RD Q189A (domain or fragment, Rhesus macaque, UniProt Q0PF16 88-296, looked up)
chain: B1 chain with Q102A
For the molecule B3, in series [2], the binding result was “binds”. For the same molecule, in series [3], the “stoichiometry N” value is 2.

B4: RhT5 88–296 EK/RD Q203A (domain or fragment, Rhesus macaque, UniProt Q0PF16 88-296, looked up)
chain: B1 chain with Q116A
As to B4, in series [2], the binding result is “binds”. Moreover, the “stoichiometry N” value in series [3] amounted to 2.

B5: RhT5 88–296 EK/RD E192K (domain or fragment, Rhesus macaque, UniProt Q0PF16 88-296, looked up)
chain: B1 chain with E105K
Take B5: in series [3], the “stoichiometry N” value turned out to be 2.

B6: RhT5 88–296 EK/RD E206A (domain or fragment, Rhesus macaque, UniProt Q0PF16 88-296, looked up)
chain: B1 chain with E119A
Regarding B6, the “stoichiometry N” value in series [3] came to 2.

B7: RhT5 88–296 EK/RD E198K (domain or fragment, Rhesus macaque, UniProt Q0PF16 88-296, looked up)
chain: B1 chain with E111K
Take B7: the binding result in series [2] was “binds”. Moreover, the “stoichiometry N” value in series [3] turned out to be 2.

B8: W196A RhT5 88–296 EK/RD (domain or fragment, Rhesus macaque, UniProt Q0PF16 88-296, looked up)
chain: B1 chain with W109A
As for B8, the “stoichiometry N” value in series [3] was 2.

B9: RhT5 88–296 EK/RD E192A (domain or fragment, Rhesus macaque, UniProt Q0PF16 88-296, looked up)
chain: B1 chain with E105A
For B9, the “stoichiometry N” value in series [3] came to 2.

B10: RhT5 88–296 EK/RD E206K (domain or fragment, Rhesus macaque, UniProt Q0PF16 88-296, looked up)
chain: B1 chain with E119K
With B10, the “stoichiometry N” value in series [3] was found to be 2.
